Publication PMC11406985

Target: medusavirus major capsid protein (medusavirus)
Experiment: cryo-EM structure; purified medusavirus particles (DNA-empty and DNA-full) assembled in infected amoebae, in PBS; single particle analysis with block-based reconstruction of fivefold, threefold and twofold blocks, 7.3-9.9 Å; AlphaFold2 model of the MCP fitted into the map

Substance: medusavirus major capsid protein (natural protein)
- stoichiometry N: 3
